# Test results reported in PMC5218472 (PLoS Biology, 2017).
# B1: PV: wild-type human IL-6R, cleavage site Pro-355/Val-356 (protein)
# chain: LAPRRCPAQEVARGVLTSLPGDSVTLTCPGVEPEDNATVHWVLRKPAAGSHPSRWAGMGRRLLLRSVQLHDSGNYSCYRAGRPAGTVHLLVDVPPEEPQLSCFRKSPLSNVVCEWGPRSTPSLTTKAVLLVRKFQNSPAEDFQEPCQYSQESQKFSCQLAVPEGDSSFYIVSMCVASSVGSKFSKTQTFQGCGILQPDPPANITVTAVARNPRWLSVTWQDPHSWNSSFYRLRFELRYRAERSKTFTTWMVKDLQHHCVIHDAWSGLRHVVQLRAQEEFGQGEWSEWSPEAMGTPWTESRSPPAENEVSTPMQALTTNKDDDNILFRDSANATSLPVQDSSSVPLPTFLVAGGSLAFGTLLCIAIVLRFKKTWKLRALKEGKTSMHPPYSLGQLVPERPRPTPVLVPLISPPVSPSSLGSDNTSSHNRPDARDPRSPYDISNTDYFFPR
# modifications: N-linked glycans at Asn-55, Asn-93, Asn-221, Asn-245 and Asn-350, O-linked glycan at Thr-352 (mapped on sIL-6R shed from transfected HEK293 cells)
# Legend:
# [1] = tested on: ADAM17; assay: PMA-induced ADAM17-mediated IL-6R ectodomain shedding in transiently transfected HEK293 cells, sIL-6R ELISA; format: cell-based, human; conditions: for increase of sIL-6R after PMA (unstimulated = 1), mean: 100 nM PMA 2 h vs DMSO
# Text: Fig 4 Mutation of Val-356 is sufficient to block proteolysis of the IL-6R and the Asp358Ala variant. (A) Amino-acid residues from Asp-340 to Ala-370 of the human IL-6R. The identified cleavage site between Pro-355 (P1) and Val-356 (P1′) is indicated. (B) Overview of the six different IL-6R cleavage site mutants. Mutations are colored in either green or blue; the amino-acid residues of the wild-type cleavage site are shown in red. (C) HEK293 cells were transiently transfected with expression plasmids encoding the wild-type IL-6R (PV) or the double mutants (IE, DG) as indicated. Cells were either treated with 100 nM PMA for 2 h or DMSO as vehicle control. sIL-6R was precipitated from the supernatant with concanavalin A-covered sepharose beads, and the cells were lysed. Both were analyzed via western blot, and β-actin served as the loading control. One out of three experiments with similar outcomes is shown. (D, E) The experiment was performed as described under (C), but sIL-6R generation was analyzed via ELISA. In (D), the amount of sIL-6R generated after PMA stimulation of the wild-type IL-6R (PV) was set to 100%, and all other values were calculated accordingly. In (E), the amount of sIL-6R without stimulation was considered as constitutive shedding and set to 1, and the increase of sIL-6R was calculated. Data shown are the mean ± SD from at least three independent experiments (*p < 0.05, ns = no significant difference). (F–H) HEK293 cells were transiently transfected with expression plasmids encoding the wild-type IL-6R (PV) or the single mutants (DV, IV, PE, PG) as indicated. The experiments were performed as described in (C) to (E). (I) Overview of the four different IL-6R cleavage site mutants of the IL-6R Asp358Ala variant. Mutations are colored in either green or blue, the amino-acid residues of the wild-type cleavage site are shown in red, and the Asp358Ala single nucleotide polymorphism (SNP) is colored in orange. (J) ADAM17-mediated proteolysis of the IL-6R variants depicted in (I) were analyzed as described in (D). (K–M) Equal numbers of Ba/F3-gp130 cells were incubated for 48 h with increasing amounts (0–100 ng/ml) of either IL-6 or Hyper-IL-6. The stably transduced IL-6R variant is indicated above the diagram. One representative experiment out of three performed is shown (mean ± SD, biological triplicates).
# (§1) Analysis of IL-6R ectodomain shedding in transiently transfected HEK293 cells or stably transduced Ba/F3-gp130 cell lines by ADAM10 and ADAM17 has been described elsewhere. Analysis of IL-6R proteolysis by CG has been described previously.
# (§2) The sandwich ELISA, which detects sIL-6R as well as ds-sIL-6R (4-11/Baf227 antibodies) and can be used to quantify total sIL-6R serum levels, was described previously. To specifically detect ds-sIL-6R (either recombinant or in human serum), a similar approach was used (ds6R/Baf227). Both sandwich ELISAs were performed with streptavidin-horseradish peroxidase (R&D Systems, Minneapolis, Minnesota, US) and the peroxidase substrate BM blue POD (Roche, Mannheim, Germany). The enzymatic reaction was stopped by addition of 1.8 M sulfuric acid, and the absorbance read at 450 nm on a Tecan rainbow reader (Tecan, Crailsheim, Germany).
# [2] = tested on: ADAM10; assay: Ionomycin-induced ADAM10-mediated IL-6R ectodomain shedding in transiently transfected HEK293 cells, sIL-6R ELISA; format: cell-based, human; conditions: for sIL-6R shedding, Figure S4E, mean / sIL-6R shedding, Figure S4B, mean: normalised to PV Iono = 100; for sIL-6R shedding, Figure S4G, mean: normalised to PVQD Iono = 100
# Text: as §1, §2
# Supplementary file pbio.2000080.s004.tif: S4 Fig Mutation of Val-356 is sufficient to block ADAM10-mediated proteolysis of the IL-6R and the Asp358Ala variant. (A) HEK293 cells were transiently transfected with Expression plasmids encoding the wildtype IL-6R (PV) or the double mutants (IE, DG) as indicated. Cells were either treated with 1 μM ionomycin for 1 h or DMSO as vehicle control. sIL-6R was precipitated from the supernatant with concanavalin A-covered Sepharose beads, and cells were lysed. Both were analyzed via Western blot, and β-actin served as loading control. One out of three experiments with similar outcome is shown. (B, C) The experiment was performed as described under (A), but sIL-6R generation was analyzed via ELISA. In (B), the amount of sIL-6R generated after ionomycin-stimulation of the wildtype IL-6R (PV) was set to 100%, and all other values were calculated accordingly. In (C), the amount of sIL-6R without stimulation was considered as constitutive shedding and set to 1 and the increase of sIL-6R was calculated. Data shown are the mean ± SD from at least three independent experiments (*p<0.05, ns = no significant difference). (D-F) HEK293 cells were transiently transfected with expression plasmids encoding the wildtype IL-6R (PV) or the single mutants (DV, IV, PE, PG) as indicated. The experiments were performed as described in (A) to (C). (G) ADAM10-mediated proteolysis of the IL-6R variants depicted in Fig 4I was analyzed as described in (B). (H) Equal numbers of Ba/F3-gp130-IL-6R_DG cells were incubated for 48 h with increasing amounts (0–100 ng/ml) of either IL-6 or Hyper-IL-6. One representative experiment out of three performed is shown (mean ± SD, biological triplicates). (TIF) Click here for additional data file.
molecule,measurement,setting,value
B1,increase in sIL-6R generation compared to vehicle-treated cells,"[1]; 100 nM PMA 2 h, HEK293, ELISA, mean ± SD",3.6 ± 1.9 fold
same,"sIL-6R in supernatant (PMA-stimulated PV = 100%), mean","[1]; Fig 4D, 100 nM PMA, 2 h, mean of at least 3 independent experiments",100%
same,"sIL-6R in supernatant (PMA-stimulated PV = 100%), mean","[1]; Fig 4D, DMSO vehicle, 2 h (constitutive shedding), mean of at least 3 independent experiments",34.05%
same,"increase of sIL-6R after PMA (unstimulated = 1), mean","[1]; Fig 4E, mean",3.59 fold
same,"sIL-6R in supernatant (PMA-stimulated PV = 100%), mean","[1]; Fig 4G, 100 nM PMA, 2 h, mean of 3",100%
same,"sIL-6R in supernatant (PMA-stimulated PV = 100%), mean","[1]; Fig 4G, DMSO, 2 h, mean of 3",36.7867%
same,"increase of sIL-6R after PMA (unstimulated = 1), mean","[1]; Fig 4H, mean of 3",2.73 fold
same,"ratio of sIL-6R Iono / DMSO, Figure S4F, mean",[2]; mean of n = 3,3.48
same,"ratio of sIL-6R Iono / DMSO, Figure S4C, mean",[2]; mean of replicates,2.623
same,"sIL-6R shedding, Figure S4E, mean","[2]; treatment DMSO, mean of n = 3",35.7033
same,"sIL-6R shedding, Figure S4B, mean","[2]; treatment DMSO, mean of replicates",40.5833
same,"sIL-6R shedding, Figure S4G, mean","[2]; treatment DMSO, mean of n = 3",48.1333
same,"sIL-6R shedding, Figure S4E, mean","[2]; treatment Iono, mean of n = 3",100
same,"sIL-6R shedding, Figure S4B, mean","[2]; treatment Iono, mean of replicates",100
same,"sIL-6R shedding, Figure S4G, mean","[2]; treatment Iono, mean of n = 3",100
